In the nanobody polyreactivity screen of Harvey et al. (2022):

Assay: yeast display, Sf9 membrane polyspecificity reagent, FACS + sequencing; frameworks hold sequencing errors
Method in brief: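 Sorting gates, low and high (top ~1%), were placed on anti-HA fluorescence to track expression and on streptavidin fluorescence to track reagent binding. A clone's polyreactivity label is taken from the gate it came out of. The reagent was 10% biotinylated, detergent-solubilized Sf9 membrane, applied for 1 hour at 4 °C to galactose-induced yeast display cells.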

Which “polyreactivity (PSR sort gate)” value does the source give for “QVQLGESGGGLVQAGGSLRLSCAASGGIINYYAMGWYRQAPGKEWELVAAITSAGSTYADSVKGRFTISRDNAKNTVYLQMNSLKPDDSAVYYCNAVGFVLKVGYYLIGYAKWYDYWGQGTHVTVSS” here?
The value was “low polyreactivity”.

With “QHQLVESGAALVQAGGSLLVICAASVFTFPFYTMGWYRQAPGKEMELVAAISTSGAGTYYAESVKGRFTISRDNAKNTVYLQMNSLKTEDTAVYYCAAYKRGRREMDYWGQGTQVTVSS” as the sequence, how does the “polyreactivity (PSR sort gate)” value read?
The value was “high polyreactivity”.

Which “polyreactivity (PSR sort gate)” value does the source give for “QVQLVESGGGLVQAGGSLRLSCAASGFTFYGYAMGWYRQAPGKERELVAAITSGGSTNYADSVKGRFTISRDNAKNTVYLQMNSLKPEDTAVYYCAASPSYWYLYVNYSYDYWGQGTQVTVSS” here?
The value was “high polyreactivity”.

With “QVQLVESGGGLVQAGGSLRLSCAASGSIFRGYAMGWYRQAPGKGRELVAAISWSGASTYYADSVKGRFTISRDNAKNTVYLQMNSLKPEDTAVYYCAAVQWTGYPFDYWGQGTQVTVSS” as the sequence, how does the “polyreactivity (PSR sort gate)” value read?
The value was “high polyreactivity”.

With “QVQLVESGGGLVQAGGSLRLSCAASGITFPGYAMGWYRQAPGKEWELVAAISTSGGSTYYADSVKGRFTISRDNAKNTVYLQMNSLKPEATAVYYCNARLVSYSYEEMDYWGQGTQVTVSS” as the sequence, how does the “polyreactivity (PSR sort gate)” value read?
The value was “low polyreactivity”.

Which “polyreactivity (PSR sort gate)” value does the source give for “QVQLVESGGCLVQAGGRLRLSCAASGRIFRGYAMGWYRQAPGKERELVARITSGGRTYYADSVKGRFTISRDNAKNTVYLQMNSLKPEDTAVYYCAAPPSVRTRKAYYYWGQGTQVTVSS” here?
Its value is “high polyreactivity”.

For “QVQLVESGGGLVQAGGSLRLSCAASGSIFYNAMGWYRQAPGKERELVASISWSGGTSTYYADSVKGRFTISRDNAKNTVYLQMNSLKPEDTAVYYCAKASRYSSYWMYYWGQGTQVTVSS”, which “polyreactivity (PSR sort gate)” value is on record?
Its value is “high polyreactivity”.

For “QFQLVESGGGLVQAGGSLRLSCAASGSIFYYNAMGCYRQAPGKEREVVAAISWSGGSTYYADSVKGRFTISRDNAKNTVYLQMNSLKPEDTAVYYCNAVGWYTYFYGSRKYNSWGQGTQVTVSS”, which “polyreactivity (PSR sort gate)” value is on record?
Its value is “low polyreactivity”.

For “QVQLVESGGGLVQAGGSLRLSCAASGSISQPYAMGGYRQAPGKERELVAAIRWSGGSTYYADSVKGRFTISRDNAKNTVYLEMNCLNPEDTAVYYCNKTTYYPSDYVYWGQGTQVTVSS”, which “polyreactivity (PSR sort gate)” value is on record?
The value was “low polyreactivity”.

Which “polyreactivity (PSR sort gate)” value does the source give for “QVQLVESGGGLVQAGGSLRLSCSAYGSTLGYYAMGWYRQAPGKERELVAAIRYSDGNTYYADSVKGRFTISRDNAKNTVYLQMNSLKPEDTAVYYCAADGGYYGRDYWGQGTQVTVSS” here?
The value was “high polyreactivity”.

With “QVQLVESGGGLVQAGGSLRLSCAASGRTFYLYAMGWYRQAPGKVRELVAAITRRGGSPYYADSVKGRFTISRDNAKNTVYLQMNSLKPEDTAVSYCAADRPGTGYSDYDYWGQGTQVTVSS” as the sequence, how does the “polyreactivity (PSR sort gate)” value read?
The value was “high polyreactivity”.

For “QVQLVESGGGLVQAGGSLRLSCAASGIIFGWYAMGWYRQAPGKEREFVATISWSGASTYYADSVKGRFTISRDNAKNTVYLQMNSLKPEDTAVYYCAAGGRRQAYGRRDYWGQGTQVTVSS”, which “polyreactivity (PSR sort gate)” value is on record?
The value was “high polyreactivity”.

With “QVQLQESVGGLVQAGGSLRLSCAASGNIFPTDRMGWYRQAPGKELEFVATISHGGSTNYADSVKGRFTISRDNAKNTVYLQMNSLKPEDTAVFYCAVWSLGRWRHYYWGQGTQVTVSS” as the sequence, how does the “polyreactivity (PSR sort gate)” value read?
The value was “low polyreactivity”.

Which “polyreactivity (PSR sort gate)” value does the source give for “QVQLVESGGGLVQAGGSLRLSCAASGSIFSFYAMGWYRQAPGKERELVAAIRYSRGSTYYADSVKGRFTISRDNAKNTVYLQMNSLKPEDTAVYFCAARGGSRRFQSQAYSLPRYDYWGQGTQVTVSS” here?
The value was “high polyreactivity”.

Which “polyreactivity (PSR sort gate)” value does the source give for “QVELVVSGGGLVQAGGSLRLSCAAYGSIFLGNAMGWYRQAPGKEREFVAGIRGSAGTTSYADSVKGRFTISRDNAKNPGYLQMNSLKPEDTAVYYCAARPRHSDGYYYWGQGTEVTVSS” here?
Its value is “high polyreactivity”.

Which “polyreactivity (PSR sort gate)” value does the source give for “QVQLVESGGGIVQAGGSLRLRWAASGLTSVRNAMGWYRQAPGKERELVAGISWSGGRTYYADSVKGRFTISRDNEKNTVYLQMNSLKPEDTGVYYCNKVRAYYTQEGSWGQGTQVTVSS” here?
The value was “high polyreactivity”.

Which “polyreactivity (PSR sort gate)” value does the source give for “QVQLVESGGGLVQAGGSLRLSCAASGRISRRNAMGWYRQAPGKEREFVATITSSGGCTYYADSVKGRFTISRDNAKNTVYLQMNSLKPEDTAVYYCAARVRGRYTEDYWGQGTQVTVSS” here?
The value was “high polyreactivity”.

For “QVQLVESGGGLVQAGGSLRLSCAASGSTIAFYDMGWYRQAPGKEREMVAAISQSDGDTYYADSVKGRFTISRDNAKNTVYLQMNSLKPEDTAVYYCARPSFTSGYQSYDYWGQGTQVTVSS”, which “polyreactivity (PSR sort gate)” value is on record?
The value was “low polyreactivity”.

For “QVQLVESGGCLVQAGGSLRLSCAASGSIFDYNAMGWYRQAPGKEREFVAAISSSAGSTYYADSVKGRFTISRDNAKNTVYLQMNSLKPEDTAVYYCAADWYDFSFPYYEYEFWGQGTQVTVSS”, which “polyreactivity (PSR sort gate)” value is on record?
The value was “low polyreactivity”.

For “QVQLQESGAGLVQAGGSLRLICAASGNIFRGDYVGWYHQAPGKEREFVASITGGGNTNFADSVKGRYSISRDNAKKTVYLKMNSLKPEDTAVYYCAVFDAWLARLIFWGQGSQVTVSS”, which “polyreactivity (PSR sort gate)” value is on record?
The value was “high polyreactivity”.

With “QVQLVESGRGLFQEGGSLRLSCAPSGFIFGKYAMGWYRQAPGTEREFVAAITRNGGSTYYADSVKGRVTISRDNAKNTVYLQMNSLKPDDTAVYYCNADRGYRRRTGMDDWGQVTQVTVSS” as the sequence, how does the “polyreactivity (PSR sort gate)” value read?
Its value is “low polyreactivity”.

With “QVQLVESGGGLVQAGGSLRLSCAASGNIFYVYAMGWYRQAPGKERELVATITWRGGNTYYADSVKGRFTISRDNAKNTVDLQMNSLTPEDTAVYYCAAYVGYTRAYIGQFYAYDYWGQGTQVTVSS” as the sequence, how does the “polyreactivity (PSR sort gate)” value read?
The value was “low polyreactivity”.

For “QVQLVESGGGLVQAGGSLRLSCAASGRIFQPNAMGWYRQAPGKERELVAAISSSGGRTYYADSVKGRFTISRDNAKNTVYLQMYSLKPEDSAVYYCNAGGYRYRSYDYWGQGTQVTVSS”, which “polyreactivity (PSR sort gate)” value is on record?
The value was “high polyreactivity”.

For “QVQLVESGGGLVQAGGSLRLSCAASGSTFYLNALGGYRQAPGKEREFVAAIDTGTGTYYADSVKGRFTISRDNAKNTVYLQMNRLKPEDTAVYYCAKDDLLVVRNVWFDYWGQGTQVTVSS”, which “polyreactivity (PSR sort gate)” value is on record?
Its value is “low polyreactivity”.

Which “polyreactivity (PSR sort gate)” value does the source give for “QVQLVESGGGLVQAGGSLRLSCAASGRTFHTNAMGWYRQAPGKERELVAAITRSGSGTYYADSVKGRFTISRDNAKNTVYLQMNSLKPEDTAVYYCNAVRRGEYDYWGQGTQVTVSS” here?
Its value is “high polyreactivity”.

Which “polyreactivity (PSR sort gate)” value does the source give for “QVQLVESGGGLVQAGGSLRLSCAASGRIFRYYVMGWYRQAPGKEREFVASISGRGASTYYADSVKGRFTISRDNAKNTVYLQMNSLKPEDTAVYYCNADVWLLSYFPEYDYWGQGTQVTVSS” here?
The value was “low polyreactivity”.

For “QVHLVESGGGLVQAGGSLRLSCAASGFTFPEYYMGWYRQAPGKESELVAAINYSDGRTFYADSVKGRFTISRDNAKNSVYLQMNSLKPEDTAVYYCASDLSYDVWFFGPDYDYSGQGTQVTVSS”, which “polyreactivity (PSR sort gate)” value is on record?
The value was “low polyreactivity”.

With “QVQLVESGGGLVQAGGSLRLSCAASGRTFPHYAMGWYRQAPGKERELVAAISSSGGSTYYADSVKGRFTISRDNAKNTVYLQMNSLKPEDNAVYYCAARYVDDGWKYDYWGQGTQVTVSS” as the sequence, how does the “polyreactivity (PSR sort gate)” value read?
Its value is “low polyreactivity”.

For “QVQLVESGGVLVQAGGSLRLSCAASGSIFGYNVMGRYRQAPGKERELVAAITYSGGSTYYADSVKGRFTISRDNAKNTVYLQMNSLKPEDTAVYYCAKVTGRRFPAYGYDHWGQGTQLTVSS”, which “polyreactivity (PSR sort gate)” value is on record?
The value was “high polyreactivity”.

Which “polyreactivity (PSR sort gate)” value does the source give for “QVQLVESGGGLLQAGGSLRLSSAASVRIFPSYAMGWYRQARGKEREFVAAITRGGASTYYADSVKGRFTISRDNAKNTVYFEMNSLKPEVTAVYYCAKDAYRYGGFSWTTGMDYWGQGTQVTVSA” here?
Its value is “high polyreactivity”.

Which “polyreactivity (PSR sort gate)” value does the source give for “QVQLVESGGGLVQAGGSLRLSCAASGLTFAYYAMGWYRQAPGKERELVAAISLSGGSTYYADSVKGRFTISRDNAKNTVYLQMNSLKPEDTAVYYCNKGSYYWWDPGSTYIDDYWGQGTQVTVSS” here?
Its value is “low polyreactivity”.
